Laboratory results as given in PMC6862324.

Biological target: T1, FLAG-tagged human NLRP1 (human), Q9C000
T1 chain: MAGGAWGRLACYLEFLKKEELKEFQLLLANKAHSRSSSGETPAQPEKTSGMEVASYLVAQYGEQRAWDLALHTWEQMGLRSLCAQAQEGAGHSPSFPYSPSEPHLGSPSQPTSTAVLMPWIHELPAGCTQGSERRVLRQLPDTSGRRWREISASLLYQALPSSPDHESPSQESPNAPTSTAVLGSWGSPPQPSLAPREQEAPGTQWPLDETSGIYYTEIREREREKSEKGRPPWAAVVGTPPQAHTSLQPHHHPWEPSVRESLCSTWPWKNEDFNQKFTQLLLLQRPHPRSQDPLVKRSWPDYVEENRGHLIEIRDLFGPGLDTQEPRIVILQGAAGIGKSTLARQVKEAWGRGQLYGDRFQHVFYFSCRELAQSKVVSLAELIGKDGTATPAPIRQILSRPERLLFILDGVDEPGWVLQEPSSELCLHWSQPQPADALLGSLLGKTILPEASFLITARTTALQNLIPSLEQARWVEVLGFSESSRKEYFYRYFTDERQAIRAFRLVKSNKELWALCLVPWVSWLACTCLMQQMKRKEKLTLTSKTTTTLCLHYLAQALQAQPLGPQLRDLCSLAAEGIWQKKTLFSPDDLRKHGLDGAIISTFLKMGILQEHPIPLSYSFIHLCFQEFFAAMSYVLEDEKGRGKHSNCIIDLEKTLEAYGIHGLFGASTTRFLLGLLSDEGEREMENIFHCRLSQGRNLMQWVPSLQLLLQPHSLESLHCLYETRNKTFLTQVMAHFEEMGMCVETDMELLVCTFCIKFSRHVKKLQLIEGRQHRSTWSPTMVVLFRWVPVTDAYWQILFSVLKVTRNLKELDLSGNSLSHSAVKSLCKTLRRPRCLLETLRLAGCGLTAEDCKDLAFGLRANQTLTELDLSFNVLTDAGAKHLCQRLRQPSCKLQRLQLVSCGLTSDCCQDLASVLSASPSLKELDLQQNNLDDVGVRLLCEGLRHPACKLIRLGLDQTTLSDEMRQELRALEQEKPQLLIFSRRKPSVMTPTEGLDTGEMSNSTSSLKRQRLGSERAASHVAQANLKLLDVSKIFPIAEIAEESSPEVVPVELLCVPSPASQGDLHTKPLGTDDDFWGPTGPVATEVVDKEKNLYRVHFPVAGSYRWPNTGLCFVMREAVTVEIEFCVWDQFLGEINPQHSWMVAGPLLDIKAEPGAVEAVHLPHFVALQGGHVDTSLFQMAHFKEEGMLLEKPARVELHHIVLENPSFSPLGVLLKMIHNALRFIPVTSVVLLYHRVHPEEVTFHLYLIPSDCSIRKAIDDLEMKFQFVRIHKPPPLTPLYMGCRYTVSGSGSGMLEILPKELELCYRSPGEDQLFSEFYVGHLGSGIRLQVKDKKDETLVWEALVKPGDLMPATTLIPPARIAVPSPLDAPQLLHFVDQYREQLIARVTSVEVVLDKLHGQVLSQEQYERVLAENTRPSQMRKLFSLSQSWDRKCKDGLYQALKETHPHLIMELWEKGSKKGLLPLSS
Assay: co-IP
Conditions: remark: other sources report otherwise

- fold reduction of binding with VbP (10 uM, in the lysate) against DMSO: 2 fold
B1: endogenous DPP9, Q86TI2 1-863 (enzyme)
chain: MATTGTPTADRGDAAATDDPAARFQVQKHSWDGLRSIIHGSRKYSGLIVNKAPHDFQFVQKTDESGPHSHRLYYLGMPYGSRENSLLYSEIPKKVRKEALLLLSWKQMLDHFQATPHHGVYSREEELLRERKRLGVFGITSYDFHSESGLFLFQASNSLFHCRDGGKNGFMVSPMKPLEIKTQCSGPRMDPKICPADPAFFSFINNSDLWVANIETGEERRLTFCHQGLSNVLDDPKSAGVATFVIQEEFDRFTGYWWCPTASWEGSEGLKTLRILYEEVDESEVEVIHVPSPALEERKTDSYRYPRTGSKNPKIALKLAEFQTDSQGKIVSTQEKELVQPFSSLFPKVEYIARAGWTRDGKYAWAMFLDRPQQWLQLVLLPPALFIPSTENEEQRLASARAVPRNVQPYVVYEEVTNVWINVHDIFYPFPQSEGEDELCFLRANECKTGFCHLYKVTAVLKSQGYDWSEPFSPGEDEFKCPIKEEIALTSGEWEVLARHGSKIWVNEETKLVYFQGTKDTPLEHHLYVVSYEAAGEIVRLTTPGFSHSCSMSQNFDMFVSHYSSVSTPPCVHVYKLSGPDDDPLHKQPRFWASMMEAASCPPDYVPPEIFHFHTRSDVRLYGMIYKPHALQPGKKHPTVLFVYGGPQVQLVNNSFKGIKYLRLNTLASLGYAVVVIDGRGSCQRGLRFEGALKNQMGQVEIEDQVEGLQFVAEKYGFIDLSRVAIHGWSYGGFLSLMGLIHKPQVFKVAIAGAPVTVWMAYDTGYTERYMDVPENNQHGYEAGSVALHVEKLPNEPNRLLILHGFLDENVHFFHTNFLVSQLIRAGKPYQLQIYPNERHSIRCPESGEHYEVTLLHFLQEYL
